Among the data in the supplement of paper PMC10567573 are protein stability index values, retold here.

± gives the standard deviation.

This data set is described as follows: protein stability index of a GFP-peptide fusion (GPS, HEK-293T) (PSI 1-6); higher = more stable. To be noted: c terminus: a fixed tail appended.
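Further: 24-mer peptide tiles fused after GFP, lentivirally expressed, FACS-sorted into six equal bins by GFP/DsRed ratio, decoded by Illumina sequencing, PSI is the read-weighted mean bin number.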

Consider NQACKLLSDDYEQVRSAAVQLIWV [INTS4], for which the protein stability index runs as follows: (treatment: DMSO) 2.62 ± 0.29; (treatment: MLN4924 1 uM, 8 h) 2.59 ± 0.36.
In the same order, the values of NQLVGPESIAHIGDVMFTGTADGR [APMAP] are 4.77 ± 0.31 and 4.69 ± 0.08.
In the same order, the values of NRRLQLLEEENKERAKREMVMYSI [MFF] are 3.96 ± 0.19 and 3.6 ± 0.13.
In the same order, the values of NSDMQILTASGDGTCALWDVESGQ [GNB5] are 4.81 ± 0.085 and 4.61 ± 0.36.
In the case of NTNNLTFLMDLPSAGRSMPEASDQ [RNF180], the protein stability index runs as follows: (treatment: DMSO) 4.28 ± 0.14; (treatment: MLN4924 1 uM, 8 h) 4.39 ± 0.2.
In the same order, the values of NVVTIGLAFFPFLHRLFREKSLDQ [PHTF1] are 2.24 ± 0.32 and 2.3 ± 0.47.
In the same order, the values of NYTSRVWEYSSSIQNSDNDLPVVQ [TRIM29] are 3.88 ± 0.26 and 4.02 ± 0.32.
In the same order, the values of NYVAKNFAQALGCVLYACFILGRL [SOAT2] are 3.46 ± 0.38 and 2.85 ± 0.38.
As to PAAPGAGGGSGSAPGPSRIADYLL [TRIB1], the protein stability index was 4.02 ± 0.68 (treatment: DMSO) and 4.14 ± 0.21 (treatment: MLN4924 1 uM, 8 h).
On the same counts, the results for PAGEMKPMPLSEGKSILLFGGAAA [BCL2L13] are 3.53 ± 0.15 and 3.75 ± 0.27.
On the same counts, the results for PCLGHTFNAGIQQAFQLPKLGALL [ZBED1] are 2.36 ± 0.37 and 2.02 ± 0.24.
On the same counts, the results for PCLLGSRVFSQGSHAWEVALGGLQ [TRIM35] are 2.36 ± 0.15 and 2.35 ± 0.19.
Take PDLRDIELKLGRKVPESLVRSLRG [LURAP1L]: the protein stability index is, setting by setting: (treatment: DMSO) 3.16 ± 0.4; (treatment: MLN4924 1 uM, 8 h) 3.17 ± 0.41.
On the same counts, the results for PECTRCGHGIVGTIVKARDKLYHP [PDLIM4] are 2.35 ± 0.13 and 2.56 ± 0.21.
Turning to PEGPEPAAPGKQPGRGHTHAAQGG [ELOA2], the protein stability index was determined as 5.39 ± 0.27 (treatment: DMSO) and 5.51 ± 0.16 (treatment: MLN4924 1 uM, 8 h).
In the same order, the values of PEKLIWGDQDPLSKIPFKILSGHE [WDR88] are 3.43 ± 0.85 and 3.45 ± 0.44.
On to PEMRWNKGTILKASVDYIRKLQKE [TFE3], for which the protein stability index stood at 2.91 ± 0.24 (treatment: DMSO) and 2.95 ± 0.17 (treatment: MLN4924 1 uM, 8 h).
On the same counts, the results for PEPWPGGCTGDEAESRGHSKGWGR [MYCL] are 4.18 ± 0.12 and 4.46 ± 0.56.
With PGEPNNAGNNEHCGNIKAPSLQAW [CD207], the protein stability index amounted to 4.38 ± 0.12 (treatment: DMSO) and 4.21 ± 0.078 (treatment: MLN4924 1 uM, 8 h).
On the same counts, the results for PGFSSLSLSDQMSVLQSVWMEVLV [ESRRA] are 2.38 ± 0.33 and 2.08 ± 0.27.
In the same order, the values of PGGDQGGPPVGPLSLGLATVDIQN [WAS] are 4.75 ± 0.22 and 4.71 ± 0.087.
In the same order, the values of PGGPCDSTLGGDIRESDPEQAPAP [TBX6] are 5.49 ± 0.16 and 5.44 ± 0.29.
Regarding PGKETLESALIALDSEKPKKLRFH [EHMT1], the protein stability index was determined as 4.06 ± 0.24 (treatment: DMSO) and 4.11 ± 0.45 (treatment: MLN4924 1 uM, 8 h).
On the same counts, the results for PGNQAEHGAVTVGGTSVGSLGVPG [ZBTB22] are 4.89 ± 0.25 and 4.75 ± 0.26.
Take PGYPKMIAHDFPGIGHKVDAVFMK [MMP1]: the protein stability index worked out at 2.75 ± 0.17 (treatment: DMSO) and 3.02 ± 0.33 (treatment: MLN4924 1 uM, 8 h).
In the same order, the values of PHFLQGGPFPLPYTAPGGYLDVGS [TBX6] are 2.93 ± 0.56 and 2.76 ± 0.33.
On the same counts, the results for PHLMQEHMGTNVIVANTMPTHLSN [HNF4A] are 3.83 ± 0.19 and 3.97 ± 0.24.
In the same order, the values of PISVHCSAGVGRTGVFITLSIVLE [PTPRD] are 2.96 ± 0.26 and 2.6 ± 0.21.
Consider PITRKAAQLYTLWVTFQVLLYTSL [DHCR7], for which the protein stability index reads like this: (treatment: DMSO) 3.07 ± 0.22; (treatment: MLN4924 1 uM, 8 h) 2.56 ± 0.51.
In the case of PKDLDPSLCTHLIYAFAGMTNHQL [CHIT1], the protein stability index by setting is: (treatment: DMSO) 2.75 ± 0.44; (treatment: MLN4924 1 uM, 8 h) 2.46 ± 0.6.
On the same counts, the results for PLGGGVGGQDGLGAPKDQQQPPQQ [KLHL14] are 5.31 ± 0.39 and 5.33 ± 0.26.
In the same order, the values of PLLLSHTLQELLARDTVQVELIPE [SNX8] are 2.71 ± 0.23 and 2.73 ± 0.31.
In the same order, the values of PNCLSMGSRCLKTFEVPEENTAET [ZBED1] are 4.89 ± 0.39 and 4.93 ± 0.15.
Take PPGIPPLMPGVPPLMPGMPPVMPG [ZNF207]: the protein stability index (treatment: DMSO) was determined as 3.9 ± 0.23 and the protein stability index (treatment: MLN4924 1 uM, 8 h) came to 4.07 ± 0.21.
The sequence PPHICWDETHFGKMGSYYINRTFF [POMT2] registered a protein stability index (treatment: DMSO) of 2.1 ± 0.44 and a protein stability index (treatment: MLN4924 1 uM, 8 h) of 2.23 ± 0.4.
Regarding PPLNPTSWWADLRALARNLIFGLI [SPNS1], the protein stability index came out at 4.75 ± 0.3 (treatment: DMSO) and 4.74 ± 0.32 (treatment: MLN4924 1 uM, 8 h).
